From patent US20250043001A1 (published 2025)

Target: human CD28 (human, UniProt P10747 19-152)
Assay: -; scFv VHVL

Kd: 230 nM
B1: 1A7_H1.14_L1 (antibody, V domains shown)
VH: EVQLLESGGGLVQPGGSLRLSCAASGFTFSSYYMSWVRQAPGKGLEWVSTISESGDSTYYADSVKGRFTISRDNSKNTLYLQMNSLRAEDTAVYYCAKSGPGLRQVGFDYWGQGTLVTVSS
VL: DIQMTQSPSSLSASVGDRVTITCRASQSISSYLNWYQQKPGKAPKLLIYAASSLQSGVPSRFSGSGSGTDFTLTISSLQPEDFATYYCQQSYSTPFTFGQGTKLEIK
